Changes are numbered by the printed parent chain. Names and notes keep the numbering of the source.
B1: YS125: mutated DAOCS with substitution N304L as disclosed in Chin H. S. et al (protein, UniProt P18548 1-311, looked up, variant N304L)
Deacetoxycephalosporin C …: MDTTVPTFSLAELQQGLHQDEFRRCLRDKGLFYLTDCGLTDTELKSAKDLVIDFFEHGSEAEKRAVTSPVPTMRRGFTGLESESTAQITNTGSYSDYSMCYSMGTADNLFPSGDFERIWTQYFDRQYTASRAVAREVLRATGTEPDGGVEAFLDCEPLLRFRYFPQVPEHRSAEEQPLRMAPHYDLSMVTLIQQTPCANGFVSLQAEVGGAFTDLPYRPDAVLVFCGAIATLVTGGQVKAPRHHVAAPRRDQIAGSSRTSSVFFLRPNADFTFSVPLARECGFDVSLDGETATFQDWIGGNYVLIRRTSKA
B2: YS110: mutated penicillin expandase (DAOCS) with substitution Y184H (protein, UniProt P18548 1-311, looked up, variant Y184H)
Deacetoxycephalosporin C …: B1 Deacetoxycephalosporin C … with Y184H, L304N
B3: YS67: mutated penicillin expandase (DAOCS) with substitutions V275I and I305M (protein, UniProt P18548 1-311, looked up, variant V275I I305M)
Deacetoxycephalosporin C …: B1 Deacetoxycephalosporin C … with V275I, L304N, I305M
B4: YS5: mutated penicillin expandase (DAOCS) with substitution V275I (protein, UniProt P18548 1-311, looked up, variant V275I)
Deacetoxycephalosporin C …: B1 Deacetoxycephalosporin C … with V275I, L304N
B5: YS72: mutated penicillin expandase (DAOCS) with substitution C155Y (protein, UniProt P18548 1-311, looked up, variant C155Y)
Deacetoxycephalosporin C …: B1 Deacetoxycephalosporin C … with C155Y, L304N
B6: YS53: mutated penicillin expandase (DAOCS) with substitution C281Y (protein, UniProt P18548 1-311, looked up, variant C281Y)
Deacetoxycephalosporin C …: B1 Deacetoxycephalosporin C … with C281Y, L304N
B7: YS69: mutated penicillin expandase (DAOCS) with substitution M188I (protein, UniProt P18548 1-311, looked up, variant M188I)
Deacetoxycephalosporin C …: B1 Deacetoxycephalosporin C … with M188I, L304N
B8: SC59: DNA-shuffled combined DAOCS mutant with C155Y, Y184H, V275I and C281Y (protein, UniProt P18548 1-311, looked up, variant C155Y Y184H V275I C281Y)
Deacetoxycephalosporin C …: B1 Deacetoxycephalosporin C … with C155Y, Y184H, V275I, C281Y, L304N
B9: YS115: mutated penicillin expandase (DAOCS) with substitution M73T (protein, UniProt P18548 1-311, looked up, variant M73T)
Deacetoxycephalosporin C …: B1 Deacetoxycephalosporin C … with M73T, L304N
B10: YS59: mutated penicillin expandase (DAOCS) with substitution G79E (protein, UniProt P18548 1-311, looked up, variant G79E)
Deacetoxycephalosporin C …: B1 Deacetoxycephalosporin C … with G79E, L304N
B11: YS103: mutated penicillin expandase (DAOCS) with substitution M188V (protein, UniProt P18548 1-311, looked up, variant M188V)
Deacetoxycephalosporin C …: B1 Deacetoxycephalosporin C … with M188V, L304N
B12: EC12: mutated penicillin expandase (DAOCS) with substitution L277Q (protein, UniProt P18548 1-311, looked up, variant L277Q)
Deacetoxycephalosporin C …: B1 Deacetoxycephalosporin C … with L277Q, L304N
B13: YS87: mutated penicillin expandase (DAOCS) with substitution T91A (protein, UniProt P18548 1-311, looked up, variant T91A)
Deacetoxycephalosporin C …: B1 Deacetoxycephalosporin C … with T91A, L304N
B14: YH2: mutated penicillin expandase (DAOCS) with substitution H244R (protein, UniProt P18548 1-311, looked up, variant H244R)
Deacetoxycephalosporin C …: B1 Deacetoxycephalosporin C … with H244R, L304N
B15: YS71: mutated penicillin expandase (DAOCS) with substitution A106T (protein, UniProt P18548 1-311, looked up, variant A106T)
Deacetoxycephalosporin C …: B1 Deacetoxycephalosporin C … with A106T, L304N
B16: YS123: mutated penicillin expandase (DAOCS) with substitution H244Q (protein, UniProt P18548 1-311, looked up, variant H244Q)
Deacetoxycephalosporin C …: B1 Deacetoxycephalosporin C … with H244Q, L304N
B17: YS74: combined DAOCS mutant, mutated sites 275I, 304K, 305L (protein, UniProt P18548 1-311, looked up, variant V275I N304K I305L)
Deacetoxycephalosporin C …: B1 Deacetoxycephalosporin C … with V275I, L304K, I305L
B18: YS81: combined DAOCS mutant, mutated sites 275I, 281Y, 305M (protein, UniProt P18548 1-311, looked up, variant V275I C281Y I305M)
Deacetoxycephalosporin C …: B1 Deacetoxycephalosporin C … with V275I, C281Y, L304N, I305M
B19: SC39: combined DAOCS mutant, mutated sites 73T, 281Y (protein, UniProt P18548 1-311, looked up, variant M73T C281Y)
Deacetoxycephalosporin C …: B1 Deacetoxycephalosporin C … with M73T, C281Y, L304N
B20: YS88: combined DAOCS mutant, mutated sites 79E, 275I, 281Y (protein, UniProt P18548 1-311, looked up, variant G79E V275I C281Y)
Deacetoxycephalosporin C …: B1 Deacetoxycephalosporin C … with G79E, V275I, C281Y, L304N
B21: YS100: combined DAOCS mutant, mutated sites 79E, 275I, 305L (protein, UniProt P18548 1-311, looked up, variant G79E V275I I305L)
Deacetoxycephalosporin C …: B1 Deacetoxycephalosporin C … with G79E, V275I, L304N, I305L

Assay: Kinetic assay of purified DAOCS with penicillin N as main substrate
Format: biochemical
Conditions: for penicillin N; 0.5 μg purified DAOCS, 30° C., 10 minutes
Description: (§1) The cell extract (2 ml) of a candidate mutant was applied onto a HiTrap Q column (5 ml) pre-equilibrated with buffer B (50 mM Mops/pH 7.5, 1 mM DTT, 0.4 mM pefabloc SC, and 0.5 μg/ml leupeptin). Then, the column was washed with 20 ml of buffer B, followed by a further wash with 25 ml of buffer B containing 120 mM NaCl, and DAOCS was eluted off with 20 ml of buffer B containing 150 mM NaCl. The DAOCS containing fractions were pooled (10 ml), concentrated by UF 15 device (NMWL 5K; Millipore), and loaded onto a Hiload Superdex 75 (16/60) column pre-equilibrated with buffer B at a flow rate of 1 ml/min.
(§2) The standard penicillin G assay was followed for kinetic assay, but 20 μg of purified DAOCS was used and the concentration of α-ketoglutarate was reduced to 1 mM. Kinetic parameters were obtained from triplicate experiments by Hanes-Woolf Plot. For assays using penicillin N as a main substrate, a total volume of 240 μl reaction containing 50 mM Hepes/pH 7.5, 0.4 mM ascorbate, 0.1 mM FeSO4, 0.1 mM α-ketoglutarate, 0.1 mM penicillin N and 0.5 μg of purified DAOCS was incubated at 30° C. for 10 minutes, then the same volume of 10 mM EDTA/pH 7.5 was added, and the mixture was subjected to ultrafiltration with UF 0.5 device (NMWL 5000, Millipore). The filtrate was analyzed by HPLC using 25 mM potassium phosphate/pH 6.5 as a mobile phase. The retention time of DAOC and penicillin N was 12 minutes and 13.5 minutes, respectively The results of kinetic parameters are shown in Table 1, wherein the definition and calculation of the parameters are described in Lehninger et al. Principles of Biochemistry, 2nd Ed. Worth Publishers, New York (1993) which is incorporated herein for reference.
Work on B1 yielded a kcat of 0.415 ± 0.063 S^−1. Molecule B2 has a kcat of 0.048 ± 0.005 S^−1. B3 gave a kcat of 0.316 ± 0.032 S^−1. Molecule B4 has a kcat of 0.252 ± 0.020 S^−1. For B5, the kcat was 0.235 ± 0.008 S^−1. B6 gave a kcat of 0.273 ± 0.014 S^−1. For B7, the kcat was 0.277 ± 0.004 S^−1. B8 gave a kcat of 0.048 ± 0.001 S^−1. For B9, the kcat was 0.239 ± 0.009 S^−1. For B10, the kcat was 0.178 ± 0.019 S^−1. B11 gave a kcat of 0.084 ± 0.002 S^−1. For B12, the kcat was 0.297 ± 0.020 S^−1. With B13 the kcat was 0.247 ± 0.006 S^−1. With B14 the kcat was 0.236 ± 0.005 S^−1. Work on B15 yielded a kcat of 0.277 ± 0.014 S^−1. For B16, the kcat was 0.260 ± 0.006 S^−1.

Same assay, conditions: for penicillin N; 0.5 μg purified DAOCS, 30° C., 10 minutes; triplicate, Hanes-Woolf Plot
Work on B1 yielded a Km of 18 ± 4 µM. In the case of B2, the Km is reported as 295 ± 30 µM. B3 showed a Km of 13 ± 5 µM. With B4 the Km was 12 ± 3 µM. For B5, the Km was 16 ± 0.5 µM. Work on B6 yielded a Km of 6 ± 1 µM. Molecule B7 has a Km of 11 ± 1 µM. Work on B8 yielded a Km of 92 ± 0.5 µM. Molecule B9 has a Km of 6 ± 3 µM. With B10 the Km was 9 ± 3 µM. B11 showed a Km of 47 ± 0.5 µM. B12 showed a Km of 11 ± 1.5 µM. B13 showed a Km of 9 ± 0.5 µM. Molecule B14 has a Km of 8 ± 1 µM. With B15 the Km was 13 ± 2 µM. Work on B16 yielded a Km of 9 ± 1.5 µM.

Assay: Kinetic assay of purified DAOCS with penicillin G (standard penicillin G assay, HPLC of cephalosporin G)
Format: biochemical
Conditions: for penicillin G; 20 μg purified DAOCS, 1 mM α-ketoglutarate, 30° C.
Description: (§3) For penicillin G, 20 μl of cell extracts was added into a standard 200 μl assay reaction containing 50 mM Mops/pH 7.5, 4 mM ascorbate, 1 mM FeSO4, 4 mM α-ketoglutarate and 7 mM penicillin G, and incubated at 30° C. for 20 minutes. The reaction was stopped by addition of 200 μl of ethanol, followed by a centrifugation at 15,000×g for 5 minutes. The concentration of cephalosporin G in supernatant was analyzed by HPLC with 40 μl injection. The mobile phase was 25 mM potassium phosphate/pH 6.5 with 19% acetonitrile at a flow rate of 1 ml/min. The retention time for cephalosporin G was 8.5 minutes and 12.5 minutes for penicillin G with detection at 215 nm, and the product at 8.5 minutes in DAOCS reaction was confirmed by ESI-LC/MS (positive): [M+H]^+=333. […] The different combinations of the mutated amino acids mentioned above were also constructed by site-directed mutagenesis.
as §1, §2
With B1 the kcat was 0.0402 ± 0.0006 S^−1. In the case of B2, the kcat is reported as 0.0798 ± 0.0012 S^−1. Work on B3 yielded a kcat of 0.1458 ± 0.0038 S^−1. Molecule B4 has a kcat of 0.0502 ± 0.0012 S^−1. In the case of B5, the kcat is reported as 0.0476 ± 0.0012 S^−1. Work on B6 yielded a kcat of 0.0744 ± 0.0033 S^−1. With B7 the kcat was 0.0507 ± 0.0006 S^−1. Molecule B8 has a kcat of 0.1398 ± 0.0015 S^−1. Molecule B9 has a kcat of 0.0627 ± 0.0021 S^−1. Molecule B10 has a kcat of 0.0315 ± 0.0003 S^−1. For B11, the kcat was 0.0456 ± 0.0016 S^−1. With B12 the kcat was 0.1036 ± 0.0012 S^−1. For B13, the kcat was 0.0522 ± 0.0004 S^−1. Molecule B14 has a kcat of 0.0672 ± 0.0008 S^−1. Work on B15 yielded a kcat of 0.0453 ± 0.0009 S^−1. With B16 the kcat was 0.0698 ± 0.0012 S^−1.

Same assay, conditions: for penicillin G; 20 μg purified DAOCS, 1 mM α-ketoglutarate, 30° C.; triplicate, Hanes-Woolf Plot
B1 gave a Km of 550 ± 120 µM. For B2, the Km was 950 ± 50 µM. With B3 the Km was 250 ± 80 µM. For B4, the Km was 1680 ± 200 µM. B5 showed a Km of 1760 ± 50 µM. Work on B6 yielded a Km of 680 ± 340 µM. B7 showed a Km of 1960 ± 90 µM. In the case of B8, the Km is reported as 190 ± 2 µM. B9 showed a Km of 740 ± 160 µM. For B10, the Km was 750 ± 20 µM. In the case of B11, the Km is reported as 760 ± 170 µM. With B12 the Km was 1020 ± 20 µM. With B13 the Km was 1360 ± 90 µM. With B14 the Km was 2450 ± 40 µM. Molecule B15 has a Km of 1770 ± 150 µM. With B16 the Km was 1390 ± 90 µM.

Assay: Relative activity of purified combined mutants compared to wild type DAOCS
Format: biochemical
Conditions: 1 mM penicillin G; activity of wild-type DAOCS as 100%
Description: as §3, §2
The relative activities of the mutants are determined according to Chin H. S. et al supra with the activity of wild-type DAOCS as 100% and shown in Table 2. The assay was performed with 1 mM penicillin G, and the other conditions were the same as standard assay.
With B3 the “Relative Activities” value was 500%. For B17, the “Relative Activities” value was 300%. For B18, the “Relative Activities” value was 1290%. With B19 the “Relative Activities” value was 610%. For B20, the “Relative Activities” value was 430%. In the case of B21, the “Relative Activities” value is reported as 470%.

Reference: patent US6905854B2, “Mutated penicillin expandase and process for preparing 7-ADCA using the same” (Synmax Biochemical Co., Ltd., priority 2002, dated 2005)
